Consider 1 molecule from patent publication US20240261333A1 (published 2024).

Experiment in all cases: co-IP, anti-FLAG, lysate of cells with N-FLAG B3GNT2; mass spectrometry
For one assay, the target named is RPL4 (human, UniProt P36578 2-427).
In the next assay the target is T1, HADHB (human, UniProt P55084 34-474).
T1 construct: also called NP_000174.1 (+3)
T1 sequence (looked up): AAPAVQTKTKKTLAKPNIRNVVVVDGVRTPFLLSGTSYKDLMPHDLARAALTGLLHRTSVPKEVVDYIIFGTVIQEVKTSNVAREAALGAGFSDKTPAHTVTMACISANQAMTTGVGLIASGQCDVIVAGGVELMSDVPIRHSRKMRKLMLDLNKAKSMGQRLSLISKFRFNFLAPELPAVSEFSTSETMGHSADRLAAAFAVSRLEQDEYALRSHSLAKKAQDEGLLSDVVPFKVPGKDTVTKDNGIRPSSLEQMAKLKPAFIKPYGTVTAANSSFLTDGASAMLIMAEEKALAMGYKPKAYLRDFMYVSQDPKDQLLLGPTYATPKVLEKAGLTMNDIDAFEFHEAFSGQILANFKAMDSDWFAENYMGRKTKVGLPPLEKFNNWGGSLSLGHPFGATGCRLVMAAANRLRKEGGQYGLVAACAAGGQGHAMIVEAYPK

For the next assay, the target named is FAU (human, UniProt P62861 75-133).
For the next assay, the target named is T2, G3BP1 (human, UniProt Q13283 2-466).
T2 construct: also called NP_005745.1
T2 sequence (Q13283 2-466 limits assumed): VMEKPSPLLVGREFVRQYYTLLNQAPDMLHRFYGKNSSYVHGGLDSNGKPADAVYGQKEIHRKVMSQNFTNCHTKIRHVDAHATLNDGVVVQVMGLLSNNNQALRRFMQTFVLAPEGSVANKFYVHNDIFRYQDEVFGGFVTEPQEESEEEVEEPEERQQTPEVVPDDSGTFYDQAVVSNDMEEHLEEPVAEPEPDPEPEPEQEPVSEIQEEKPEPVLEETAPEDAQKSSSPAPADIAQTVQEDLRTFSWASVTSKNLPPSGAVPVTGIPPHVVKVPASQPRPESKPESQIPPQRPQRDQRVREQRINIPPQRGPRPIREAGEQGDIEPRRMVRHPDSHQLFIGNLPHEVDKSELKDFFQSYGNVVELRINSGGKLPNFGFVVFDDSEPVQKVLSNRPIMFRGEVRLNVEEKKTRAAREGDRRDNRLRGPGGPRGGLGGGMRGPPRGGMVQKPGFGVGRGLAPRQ

For the next assay, the target named is T3, PRBP1 (human, UniProt P26599 1-557).
T3 construct: Label 'PRBP1' is probably a misprint of PTBP1; also called NP_002810.1 (+4)
T3 sequence (P26599 whole entry): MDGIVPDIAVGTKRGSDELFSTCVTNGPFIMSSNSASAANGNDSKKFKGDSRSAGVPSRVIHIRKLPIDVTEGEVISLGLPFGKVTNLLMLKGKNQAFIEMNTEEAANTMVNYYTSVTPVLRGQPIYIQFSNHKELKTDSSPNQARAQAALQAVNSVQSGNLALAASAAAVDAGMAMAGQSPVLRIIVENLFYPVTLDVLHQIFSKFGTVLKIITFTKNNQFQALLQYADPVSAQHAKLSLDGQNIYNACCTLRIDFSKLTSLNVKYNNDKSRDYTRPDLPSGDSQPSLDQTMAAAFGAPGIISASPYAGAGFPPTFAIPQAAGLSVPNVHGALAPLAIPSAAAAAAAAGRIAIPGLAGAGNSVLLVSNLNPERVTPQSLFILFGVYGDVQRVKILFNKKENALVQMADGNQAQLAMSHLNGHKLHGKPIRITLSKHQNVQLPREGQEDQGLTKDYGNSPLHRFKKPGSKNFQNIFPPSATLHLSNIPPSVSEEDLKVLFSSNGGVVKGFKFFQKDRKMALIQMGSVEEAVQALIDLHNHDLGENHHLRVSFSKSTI

The target of a further assay is T4, KRT6B (human, UniProt P04259 2-564).
T4 construct: also called NP_00546.2
T4 sequence (looked up): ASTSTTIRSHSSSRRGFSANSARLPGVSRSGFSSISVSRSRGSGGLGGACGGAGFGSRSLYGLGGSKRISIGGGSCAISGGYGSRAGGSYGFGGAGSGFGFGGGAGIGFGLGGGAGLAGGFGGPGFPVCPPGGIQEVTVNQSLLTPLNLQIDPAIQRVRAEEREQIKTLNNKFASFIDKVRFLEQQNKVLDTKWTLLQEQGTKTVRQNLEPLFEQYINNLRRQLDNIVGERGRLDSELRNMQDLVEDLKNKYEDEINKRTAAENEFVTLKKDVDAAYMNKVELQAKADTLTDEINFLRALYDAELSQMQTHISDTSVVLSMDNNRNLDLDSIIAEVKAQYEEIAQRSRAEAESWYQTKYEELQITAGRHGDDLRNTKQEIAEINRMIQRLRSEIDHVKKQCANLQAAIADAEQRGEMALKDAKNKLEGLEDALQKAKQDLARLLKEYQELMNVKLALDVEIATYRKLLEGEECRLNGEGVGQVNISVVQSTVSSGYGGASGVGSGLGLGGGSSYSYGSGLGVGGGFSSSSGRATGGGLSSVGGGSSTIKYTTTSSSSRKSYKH

The target of another assay is T5, HNRNPA2B1 (human, UniProt P22626-2 1-341).
T5 construct: also called NP_002128.1 (+1)
T5 sequence (P22626 other isoform, or with tags, fused parts or gaps limits assumed): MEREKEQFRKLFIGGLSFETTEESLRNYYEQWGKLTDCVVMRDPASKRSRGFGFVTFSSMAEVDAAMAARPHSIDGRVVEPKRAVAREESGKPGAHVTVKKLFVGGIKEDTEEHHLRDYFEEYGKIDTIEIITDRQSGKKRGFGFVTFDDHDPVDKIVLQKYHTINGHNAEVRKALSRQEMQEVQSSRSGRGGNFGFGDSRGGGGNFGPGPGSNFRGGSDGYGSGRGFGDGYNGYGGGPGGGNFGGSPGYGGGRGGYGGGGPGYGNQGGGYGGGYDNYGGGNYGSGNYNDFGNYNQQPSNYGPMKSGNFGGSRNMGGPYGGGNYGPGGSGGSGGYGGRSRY

For a further assay, the target named is T6, DDX5 (human, UniProt P17844 1-614).
T6 construct: also called NP_001307526.1
T6 sequence (P17844 whole entry): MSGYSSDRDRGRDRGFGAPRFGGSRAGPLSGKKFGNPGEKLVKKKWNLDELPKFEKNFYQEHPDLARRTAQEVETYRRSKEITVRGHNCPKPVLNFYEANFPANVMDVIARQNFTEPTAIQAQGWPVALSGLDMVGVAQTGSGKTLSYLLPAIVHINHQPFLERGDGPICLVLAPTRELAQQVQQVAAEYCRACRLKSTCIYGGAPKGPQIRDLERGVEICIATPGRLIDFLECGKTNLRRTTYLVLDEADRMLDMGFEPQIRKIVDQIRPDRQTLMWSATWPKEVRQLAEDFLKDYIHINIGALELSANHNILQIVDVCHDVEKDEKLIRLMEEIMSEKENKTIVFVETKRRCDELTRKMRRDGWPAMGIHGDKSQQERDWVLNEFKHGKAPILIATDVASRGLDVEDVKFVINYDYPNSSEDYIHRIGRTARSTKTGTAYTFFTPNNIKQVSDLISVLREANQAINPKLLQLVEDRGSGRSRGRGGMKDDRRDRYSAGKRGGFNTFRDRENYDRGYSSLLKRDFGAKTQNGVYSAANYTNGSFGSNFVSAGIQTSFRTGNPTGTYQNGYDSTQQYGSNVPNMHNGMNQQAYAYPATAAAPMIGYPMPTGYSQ

B1: N-terminal FLAG tagged B3GNT2 (enzyme, human, UniProt Q9NY97 1-397, looked up)
chain: MSVGRRRIKLLGILMMANVFIYFIMEVSKSSSQEKNGKGEVIIPKEKFWKISTPPEAYWNREQEKLNRQYNPILSMLTNQTGEAGRLSNISHLNYCEPDLRVTSVVTGFNNLPDRFKDFLLYLRCRNYSLLIDQPDKCAKKPFLLLAIKSLTPHFARRQAIRESWGQESNAGNQTVVRVFLLGQTPPEDNHPDLSDMLKFESEKHQDILMWNYRDTFFNLSLKEVLFLRWVSTSCPDTEFVFKGDDDVFVNTHHILNYLNSLSKTKAKDLFIGDVIHNAGPHRDKKLKYYIPEVVYSGLYPPYAGGGGFLYSGHLALRLYHITDQVHLYPIDDVYTGMCLQKLGLVPEKHKGFRTFDIEEKNKNNICSYVDLMLVHSRKPQEMIDIWSQLQSAHLKC
notes: Overexpressed in cells and pulled down from the lysate with mouse anti-FLAG antibody; also called N-FLAG B3GNT2; N-term FLAG; not shown: N-terminal FLAG tag
In the case of B1, the “co-IP mass spectrometry count” value with RPL4 amounted to 15; with HADHB it was 0; with FAU, 5; with G3BP1, 27; in the assay with PRBP1, 6; with KRT6B, 370. Besides, the figures for the “co-IP mass spectrometry count” value with HNRNPA2B1 and with DDX5 were 7 and 16, respectively.
